Reference: patent US20090203610A1, “METHODS OF TREATING OBESITY OR DIABETES USING NT-4/5” (RINAT NEUROSCIENCE CORPORATION, priority 2004, published 2009)

Tests used:
db/db mice [1] = assay: Body weight, daily then intermittent s.c. dosing to day 29 in db/db mice (Example 2); assay type: in vivo
Experimental: Female db/db mice (12 weeks old) were divided into four groups and were subcutaneously injected with vehicle (PBS) or NT-4/5 at doses of 2 mg/kg, 5 mg/kg, or 10 mg/kg daily from day 0 to day 4, and then on day 8, day 11, day 15, day 18, day 22, day 25, and day 29. […] In addition, the body weights in NT-4/5 in all treated groups continued to be reduced during the treatment period.

db/db mice [2] = assay: Body weight and food intake, daily s.c. dosing day 1 to 30 in db/db mice (Example 2); assay type: in vivo
Experimental: Female db/db mice (12 weeks old) were divided into three groups and were subcutaneously injected with vehicle (PBS) or NT-4/5 at doses of 5 mg/kg, or 20 mg/kg daily from day 1 to day 30. […] Food intake was reduced to about 20% of the vehicle group level after 10 days of administration of NT-4/5 at 20 mg/kg and was maintained at that level until day 30. Food intake was returned to about the same level as the vehicle group about 12 days after stop of treatment.

[3] = system: NONcNZO-10 polygenic obese and diabetic mice; assay: Body weight after intravenous NT-4/5 in NONcNZO-10 mice (Example 3); assay type: in vivo; conditions: i.v. 1 mg/kg
Experimental: Experiment was also performed on the same type of mice by intravenous injection of vehicle (PBS) and NT-4/5 (1 mg/kg) on day 1 and on day 5. About 5% to about 10% reduction of body weight was observed between NT-4/5 treated group and vehicle group between day 2 and day 15.

[4] = system: NONcNZO-10 polygenic obese mice; assay: Non-fasting blood triglyceride level in NONcNZO-10 mice (Example 4, Table 18); assay type: in vivo
From the text: Test animals: 40 male NONcNZO-10 polygenic obese mice obtained from Jackson Laboratory at 10 weeks of age weighing in the range of 26-32 g were used in this study.
Administration of NT-4/5: NT-4/5 was produced in E. coli as descried in U.S. Pat. No. 6,184,360. The mice were divided into 6 groups of equivalent body weight and baseline blood glucose distribution (6-7 mice per group). […] A “paired-fed” control group received daily injection of vehicle, but were only fed with the same amount of food the 3 mg/kg group consumed the previous day. On the day when the treatment started (day 1), a baseline blood samples were collected for measuring glucose and triglyceride. Triglyceride level was measured on day 10. At the end of the study (day 12), a terminal blood sample was collected to determine glucose, triglyceride, electrolytes (Na, K, Cl), testoterone, corticosterone, thyroid hormone (total T4) and thyroid stimulating hormone (TSH) levels. Electrolytes, free testosterone, T4 and TSH levels of serum samples were measured by AniLytics (Gaithesburg, M.D) according to the standard protocols employed by the vendor. Other analytes were measured as described above. Body weight, food intake were monitored 5 days per week through out the entire study. Daily water intake was measured from day 5 through day 7.

DIO mice [5] = assay: Body weight after intravenous NT-4/5 in DIO mice, separate study (Example 5); assay type: in vivo; conditions: i.v. 5 mg/kg on day 1 and day 4
From the text: Two way ANOVA followed by Bonferroni's post-test were used for statistical analysis.

DIO mice [6] = assay: Respiratory quotient and energy expenditure by indirect calorimetry (CCMS) in DIO mice (Example 9); assay type: in vivo
From the text: (§1) Test animals: Mice with diet induced obesity (DIO) were used in this study. 29 male C57BL/6J mice were weaned at 4 weeks of age. Immediately after weaning they were put on 58% high fat diet (D12331i, Research Diet) through out the study. The DIO mice at 13 weeks of age weighing in the range of 28-40 g were used in this study.
Administration of NT-4/5: NT-4/5 was obtained from Genentech Inc. or produced as described in U.S. Pat. No. 6,184,360. The mice were divided into 2 groups of equivalent body weight distribution (8 mice per group). The mice were acclimated individually in the Comprehensive Cage Monitoring System (CCMS, Columbus Instruments) for 2 days, in preparation for the indirect calorimetry, before the treatment started. Each group received 5 daily subcutaneous doses of either vehicle or 10 mg/kg of NT-4/5, respectively. Body weight and food intake were monitored 5 days per week through out the entire study. […] The body composition, i.e. percent lean body mass, fat content, and bone density was determined the day both before treatment started (day 0) and the final day of treatment (day 5) with a PIXImus Mouse Densitometer (GE Lunar Medical Systems, Madison, Wis.) using software version 1.46. […]

DIO mice [7] = assay: Body weight, food intake, body composition and bone density (PIXImus) in DIO mice (Example 9); assay type: in vivo
From the text: as §1
Administration of NT-4/5: NT-4/5 was obtained from Genentech Inc. or produced as described in U.S. Pat. No. 6,184,360. The mice were divided into 2 groups of equivalent body weight distribution (8 mice per group). The mice were acclimated individually in the Comprehensive Cage Monitoring System (CCMS, Columbus Instruments) for 2 days, in preparation for the indirect calorimetry, before the treatment started. Each group received 5 daily subcutaneous doses of either vehicle or 10 mg/kg of NT-4/5, respectively. Body weight and food intake were monitored 5 days per week through out the entire study. The CCMS monitoring and data analysis of oxygen consumption and carbon dioxide production were carried out according published and commonly accepted protocols as described at website of Jackson Laboratory. The body composition, i.e. percent lean body mass, fat content, and bone density was determined the day both before treatment started (day 0) and the final day of treatment (day 5) with a PIXImus Mouse Densitometer (GE Lunar Medical Systems, Madison, Wis.) using software version 1.46. Brommage et al., Am. J. Physiol. Endocrinol. Metab. 285: 454-459 (2003).

p75NTR = target: T1, p75NTR (Homo sapiens, UniProt P08138); conditions: low affinity receptor (LNGFR, p75NTR); cited from earlier work
T1 sequence (P08138 29-427): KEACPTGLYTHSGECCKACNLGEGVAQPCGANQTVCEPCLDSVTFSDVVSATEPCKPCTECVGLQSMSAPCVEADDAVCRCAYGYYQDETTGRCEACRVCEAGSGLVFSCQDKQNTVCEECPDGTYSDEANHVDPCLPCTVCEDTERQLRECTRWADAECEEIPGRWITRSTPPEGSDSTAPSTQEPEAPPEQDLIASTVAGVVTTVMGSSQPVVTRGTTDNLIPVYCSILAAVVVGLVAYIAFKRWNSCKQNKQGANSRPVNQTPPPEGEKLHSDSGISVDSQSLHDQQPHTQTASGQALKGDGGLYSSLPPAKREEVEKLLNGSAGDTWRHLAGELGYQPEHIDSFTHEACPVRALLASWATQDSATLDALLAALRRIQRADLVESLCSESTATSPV

B1: NT-4/5: mature human neurotrophin-4/5 (SEQ ID NO:1), obtained from Genentech or produced in E. coli (protein, listed as Homo sapiens)
chain: GVSETAPASRRGELAVCDAVSGWVTDRRTAVDLRGREVEVLGEVPAAGGSPLRQYFFETRCKADNAEEGGPGAGGGGCRGVDRRHWVSECKAKQSYVRALTADAQGRVGWRWIRIDTACVCTLLSRTGRA
body weight (db/db mice [1]; 2, 5 or 10 mg/kg s.c. daily day 0-4, then days 8, 11, 15, 18, 22, 25, 29): reduced body weight in a dose dependent manner
body weight reduction (db/db mice [1]; day 31, 5 mg/kg and 10 mg/kg groups): about 20%
food intake, % of the vehicle group level (db/db mice [2]; 20 mg/kg, after 10 days of administration, maintained until day 30): about 20%
body weight (db/db mice [2]; 5 or 20 mg/kg s.c. daily day 1 to 30): reduced body weight in a dose dependent manner
time after stop of treatment until food intake returned to vehicle group level (db/db mice [2]; mouse, in vivo): about 12 days
time body weight reduction maintained after 2 staggered intravenous doses [3]: up to 10 days
non-fasting blood triglyceride levels ([4]; daily subcutaneous injection): significantly reduced
non-fasting blood triglyceride level ([4]; lowest dose 0.1 mg/kg/day s.c.): significantly reduced
reduction of body weight (DIO mice [5]): about 5%
time reduced body weight maintained after the second dose (DIO mice [5]): at least 10 days
respiratory quotient (RQ=Vco2/Vo2) (DIO mice [6]; 10 mg/kg s.c. daily, P=0.0025): reduced the respiratory quotient
estimated cumulative energy expenditure (DIO mice [6]; day 1 to day 5, 10 mg/kg, vs vehicle): No change
body fat content (DIO mice [7]; 10 mg/kg s.c. daily): significantly reduced
body weight (DIO mice [7]; 10 mg/kg s.c. daily): significantly reduced
food intake (DIO mice [7]; 10 mg/kg s.c. daily): significantly reduced
lean body mass (DIO mice [7]; 10 mg/kg s.c. daily): but not the lean body mass
Bone mineral density (mean±SEM) (DIO mice [7]; day 0, 10 mg/kg group): 0.5235±0.0158 g/cm^2
Bone mineral density (mean±SEM) (DIO mice [7]; day 5, 10 mg/kg s.c. daily): 0.5452±0.0142 g/cm^2
bone density versus vehicle (DIO mice [7]; day 5, P<0.05): significantly different from that of the vehicle
Kd (p75NTR): 2 nM
